According to US8444963B2 (priority 2006, dated 2013):

B1: NT01CX2047: C. novyi-NT extracellular lipase, the liposome-disrupting factor (SEQ ID NO: 1), expressed in E. coli with oligohistidine tag (protein, listed as Clostridium novyi)
chain: MQSKLKKFISTISVSLFTLASVLTFSMAKPVNAFAKENQKVSQNNYPIILCHGCNGWGRTENFGTVAFGARYYWGGNVDLQQKLIENGFTTYTAAVGPLSSNWDRACELYAQIKGGRVDYGEAHAKKHGHSRYGRYYRGFYPEWGTKDENGNIRKVHLIGHSQGGQTIRMLTTLLGQGKQEEISATGENTNELFKGGHDWVSGLITLASPHDGTTLADMKGTDAAAAIGIGAVGSMLGNISNSDIIFDLKVDQWGLKRKPSESFISYFNRCATSKMWNSKDICSVDLSTNGAVEQNKWVKAQPNVYYFSWACCGTIRNPISIFGHHMASPIRMSDKGLYNVQWALQAQLMGTYSRNNPRRAIPVIDSKWWPNDGYVNTISENGPKAGSTDEIVNYNGTPQIGKWNFMGVKDMDHEDIIGRHWNGAPNFFIDMAQMLRNLPVTE
modifications: oligohistidine tag
B2: S127G (protein, listed as Clostridium novyi)
chain: MQSKLKKFISTISVSLFTLASVLTFSMAKPVNAFAKENQKVSQNNYPIILCHGCNGWGRTENFGTVAFGARYYWGGNVDLQQKLIENGFTTYTAAVGPLSSNWDRACELYAQIKGGRVDYGEAHAKKHGHSRYGRYYRGFYPEWGTKDENGNIRKVHLIGHGQGGQTIRMLTTLLGQGKQEEISATGENTNELFKGGHDWVSGLITLASPHDGTTLADMKGTDAAAAIGIGAVGSMLGNISNSDIIFDLKVDQWGLKRKPSESFISYFNRCATSKMWNSKDICSVDLSTNGAVEQNKWVKAQPNVYYFSWACCGTIRNPISIFGHHMASPIRMSDKGLYNVQWALQAQLMGTYSRNNPRRAIPVIDSKWWPNDGYVNTISENGPKAGSTDEIVNYNGTPQIGKWNFMGVKDMDHEDIIGRHWNGAPNFFIDMAQMLRNLPVTE

Experiments:
[1] = tested on: syngeneic CT26 colorectal tumors; test: CT26 tumors in BALB/c mice treated with C. novyi-NT spores and free or liposomal drugs; format: in vivo, mouse; settings: 300 million spores i.v., drug 10 mg/kg single i.v. dose 16 h later
Procedure: Animal models. […] Tumor volume was calculated as length×width^2×0.5.

[2] = Lipase assay of E. coli lysates; format: biochemical; settings: lysates of IPTG-induced E. coli clones
Description: FIG. 4A-4D. Functional analysis of liposomase. Plasmids carrying the wt or mutant forms of the NT01CX2047 gene were introduced into E. coli. “Cured” bacteria represent those originally containing the wt gene and grown in the absence of selective antibiotics until the plasmid was lost. Cellular lysates from three independent clones of each bacterial strain were generated after induction of expression by IPTG and used for the following: (FIG. 4A) Western blotting with an antibody to oligohistidine confirmed the presence of similar amounts of wt and mutant proteins in the bacteria. (FIG. 4B) Lipase activity was analyzed using the fluorescent lipase substrate, 1,2-dioleoyl-3-pyrenedecanoyl-rac-glycerol. (FIG. 4C) Liposome-disrupting activity was assessed using Doxil. (FIG. 4D) Liposome-disrupting activity of lipases purified from ten different organisms were assessed using Doxil. Means and standard deviations of data from at least two independent experiments are shown in (FIG. 4B) to (FIG. 4D).
Protein Expression. […]
Lipase Assay. […] Increase in fluorescence caused by catalytic release of pyrenedecanoic acid was kinetically measured over 2 hours using excitation at 320 nm and emission at 405 nm. All measurements were performed at 37° C. in a FluoStar Galaxy fluorescence plate reader. […]

[3] = Liposome-disruption assay (doxorubicin release from Doxil); format: biochemical; settings: lysates of IPTG-induced E. coli incubated with liposomal doxorubicin
Procedure: Liposome-Disruption Assay. Samples were mixed with DOXIL™ liposomal doxorubicin (100 μl sample+5 μl DOXIL™ liposomal doxorubicin in a 96-well plate or 50 μl sample+2 μl DOXIL™ in a 384-well plate). Increase in fluorescence caused by the dequenching of released doxorubicin was kinetically measured over 30-60 minutes using excitation at 470 nm and emission at 590 nm (5). All measurements were performed at 37° C. in a fluorescence plate reader. Liposome-disrupting activity was defined as the maximum slope of the release curve.
Lipase Panel Experiment. Purified NT01CX2047 enzyme and nine other purified lipases were dissolved in 100 mM Tris-HCl, pH 7.5 to a concentration of 1 mg/ml. Fifty μl of Assay Buffer (100 mM Tris-HCl pH 7.5+0.125M NaCl) was pipetted into 384-well plates, followed by 2 μl of the relevant lipase and 1 μl of DOXIL. Samples were assayed in duplicate for liposome-disrupting activity as described above.
To test the liposome-disrupting activity of the lysates described above, we incubated them with liposomal doxorubicin. […] When this strain was cultured without selective antibiotics until the bacteria lost the expression vector by random segregation, the liposome-disrupting activity was lost (FIG. 4C). Moreover, the cells that had lost the plasmid were able to grow as robustly as the parental E. coli and the S127X mutant.

[4] = tested on: E. coli; test: Growth of E. coli expressing NT01CX2047 forms after IPTG induction; format: cell-based; settings: after induction by IPTG
Procedure: Protein Expression. The expression vectors described above were transformed by heat shock into the Rosetta-gami(DE3)pLysS strain of E. coli (Novagen, Madison, Wis.). Three clones per expression construct were picked and each was cultured in 20 ml HyperBroth (AthenaES, Baltimore, Md.) under antibiotic selection (100 μg/ml ampicillin+34 μg/ml chloramphenicol) at room temperature. As a negative control, bacteria carrying the pLip plasmid were “cured” of their plasmid through growth in the absence of selective antibiotics. Loss of plasmid was verified by PCR. Expression was induced using IPTG for 1 hour, reaching an OD600˜0.2, after which the bacteria were pelleted by centrifugation and resuspended in 100 mM Tris-HCl, pH 7.5. Lysates were prepared by sonication in a Bioruptor sonicating bath (Diagenode, Belgium) and centrifugation at ˜14,000 g was performed to remove insoluble matter. […]
To examine the properties of the protein encoded by NT01CX2047, we cloned its ORF into an inducible expression vector which was then introduced into a genetically modified E. coli strain that permitted expression of C. novyi-NT genes (which have a codon usage very different than that of E. coli). […] Lysates from these cells were tested for lipase activity as measured by hydrolysis of 1,2-dioleoyl-3-pyrenedecanoyl-rac-glycerol. […]

Molecule	tumor response (tumor volume) [1]	lipase activity [2]	liposome-disrupting activity [3]	growth of the expressing E. coli cells (apparent toxicity of gene product) [4]
COc1cccc2c1C(=O)c1c(O)c3c(c(O)c1C2=O)C[C@@](O)(C(=O)CO)C[C@@H]3O[C@H]1C[C@H](N)[C@H](O)[C@H](C)O1 [doxorubicin]	Neither doxorubicin nor Doxil alone resulted in prolonged therapeutic effects	–	–	–
B1	–	exhibited lipase activity	potent activity	grew poorly
B2	–	devoid of lipase activity	retained substantial liposome-disrupting activity	same poor growth as wild-type NT01CX2047
